Here are results for one substance from publication PMC5449630.

The target in test [1] is CK2-phosphorylated XRCC4(1-238)-LigIV(654-911) complex (UniProt Q13426). Kind of test: SEC-MALS. In general terms: In gel filtration, larger molecules generally elute earlier.
Test [2] shares this target. Nature of the test: SAXS.

Chain of CK2-phosphorylated XRCC4(1-238)-LigIV(654-911) complex (Q13426 1-238, chain 1 of 2): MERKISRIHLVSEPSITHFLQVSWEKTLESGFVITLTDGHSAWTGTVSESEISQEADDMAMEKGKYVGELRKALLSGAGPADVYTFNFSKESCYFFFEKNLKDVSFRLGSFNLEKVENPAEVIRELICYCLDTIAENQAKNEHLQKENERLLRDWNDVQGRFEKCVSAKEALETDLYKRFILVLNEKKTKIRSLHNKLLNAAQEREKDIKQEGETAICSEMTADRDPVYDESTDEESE
Chain of CK2-phosphorylated XRCC4(1-238)-LigIV(654-911) complex (P49917 654-911, chain 2 of 2, further chain): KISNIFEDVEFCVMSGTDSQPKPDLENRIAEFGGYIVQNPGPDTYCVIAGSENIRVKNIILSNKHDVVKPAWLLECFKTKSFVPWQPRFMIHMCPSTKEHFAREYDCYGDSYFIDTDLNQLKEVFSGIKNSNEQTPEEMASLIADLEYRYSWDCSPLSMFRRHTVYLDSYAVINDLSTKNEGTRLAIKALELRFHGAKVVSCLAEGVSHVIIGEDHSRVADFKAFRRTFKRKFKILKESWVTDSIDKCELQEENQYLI

As to “polynucleotide kinase/phosphatase (PNKP), full length, wild type (from UniProt Q96T60 1-521) (enzyme)”, the stoichiometry N (PNKP per pXRCC4 dimer-LigIV complex) in test [1] and in test [2] was 1 each time.
